Source: PMC13043311, “2′-O-Methyl-guanosine RNA fragments antagonize TLR7 and TLR8 to limit autoimmunity”

Legend:
TLR7 T406S = biological target: T1, TLR7 T406S (Macaca mulatta, UniProt B3Y653 27-839, T406S); experiment: SPR; mean computed from runs 0.5±0.09, 0.6±0.1, 0.6±0.1; SPR with recombinant TLR7/TLR8; buffer, pH and temperature not in the material; conditions: protein: recombinant; chain copies: 2; single-stranded
T1 sequence: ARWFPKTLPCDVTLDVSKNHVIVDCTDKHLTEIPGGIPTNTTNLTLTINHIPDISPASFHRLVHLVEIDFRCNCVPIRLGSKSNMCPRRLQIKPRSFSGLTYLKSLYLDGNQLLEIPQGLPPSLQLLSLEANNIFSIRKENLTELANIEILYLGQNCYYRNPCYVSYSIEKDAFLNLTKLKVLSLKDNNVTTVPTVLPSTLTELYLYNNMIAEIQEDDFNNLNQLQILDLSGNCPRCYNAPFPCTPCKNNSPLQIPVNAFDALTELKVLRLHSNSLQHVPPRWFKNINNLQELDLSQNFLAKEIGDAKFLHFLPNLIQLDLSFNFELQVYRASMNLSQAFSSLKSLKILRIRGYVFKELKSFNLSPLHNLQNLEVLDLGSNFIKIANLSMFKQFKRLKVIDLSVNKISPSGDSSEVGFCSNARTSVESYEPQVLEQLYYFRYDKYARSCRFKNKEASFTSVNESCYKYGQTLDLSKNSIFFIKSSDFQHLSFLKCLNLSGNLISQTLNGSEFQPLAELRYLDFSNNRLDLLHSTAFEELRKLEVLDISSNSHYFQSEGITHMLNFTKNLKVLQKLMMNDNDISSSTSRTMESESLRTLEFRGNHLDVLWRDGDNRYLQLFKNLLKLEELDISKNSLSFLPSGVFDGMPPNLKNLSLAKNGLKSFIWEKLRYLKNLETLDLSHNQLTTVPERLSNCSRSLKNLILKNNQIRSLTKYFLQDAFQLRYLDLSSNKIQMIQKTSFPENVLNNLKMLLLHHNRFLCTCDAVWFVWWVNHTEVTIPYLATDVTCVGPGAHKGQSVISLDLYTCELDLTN

TLR7 WT (mmTLR7) = biological target: T2, TLR7 WT (mmTLR7) (Macaca mulatta, UniProt B3Y653 27-839); experiment: SPR; control of the nucleoside series; mean computed from runs 1±0.3, 3±0.9, 5±0.8; SPR with recombinant TLR7/TLR8; buffer, pH and temperature not in the material; conditions: protein: recombinant; chain copies: 2; single-stranded
T2 sequence: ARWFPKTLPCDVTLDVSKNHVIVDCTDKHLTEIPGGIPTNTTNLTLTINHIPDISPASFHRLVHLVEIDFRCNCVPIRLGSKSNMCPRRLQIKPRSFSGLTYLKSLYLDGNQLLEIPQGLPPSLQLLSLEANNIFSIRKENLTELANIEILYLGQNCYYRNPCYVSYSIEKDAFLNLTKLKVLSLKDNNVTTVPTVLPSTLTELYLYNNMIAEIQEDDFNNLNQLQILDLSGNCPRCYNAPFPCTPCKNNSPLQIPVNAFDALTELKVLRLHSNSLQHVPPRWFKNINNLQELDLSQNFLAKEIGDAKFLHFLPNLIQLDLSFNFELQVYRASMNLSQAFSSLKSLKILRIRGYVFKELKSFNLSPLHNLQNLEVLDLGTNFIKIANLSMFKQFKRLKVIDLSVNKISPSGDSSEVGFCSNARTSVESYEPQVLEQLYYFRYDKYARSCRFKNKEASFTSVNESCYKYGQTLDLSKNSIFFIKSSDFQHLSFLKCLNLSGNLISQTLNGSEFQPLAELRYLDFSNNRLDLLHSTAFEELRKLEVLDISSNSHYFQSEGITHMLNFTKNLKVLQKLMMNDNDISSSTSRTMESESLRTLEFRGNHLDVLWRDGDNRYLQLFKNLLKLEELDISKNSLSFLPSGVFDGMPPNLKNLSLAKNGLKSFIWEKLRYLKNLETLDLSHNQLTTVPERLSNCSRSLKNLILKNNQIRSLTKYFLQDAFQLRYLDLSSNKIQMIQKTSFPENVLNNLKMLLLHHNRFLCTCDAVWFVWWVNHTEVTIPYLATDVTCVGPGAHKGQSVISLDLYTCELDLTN

## GUC (XNA, 2'-OMe G1, RNA U2 C3; phosphorothioate linkages) [mGrUrC PS]
TLR7 T406S
  Kd: 0.57 µM
TLR7 WT (mmTLR7)
  Kd: 3 µM
